The record followed here is EP4563159A1.

The term EC50 denotes the concentration giving half of the maximal effect. A high value points to weaker potency.

The target of the experiment is secretory IgA from human colostrum (human) (UniProt P11912). Put plainly: solid-phase IgA binding assay (ELISA): streptavidin-peptide conjugate coated, secretory IgA from human colostrum titrated, anti-human IgA-HRP detection. A general note: An ELISA detects its analyte on a solid surface through an enzyme-linked reagent.
Sequence of UniProt P11912 (P11912 whole entry): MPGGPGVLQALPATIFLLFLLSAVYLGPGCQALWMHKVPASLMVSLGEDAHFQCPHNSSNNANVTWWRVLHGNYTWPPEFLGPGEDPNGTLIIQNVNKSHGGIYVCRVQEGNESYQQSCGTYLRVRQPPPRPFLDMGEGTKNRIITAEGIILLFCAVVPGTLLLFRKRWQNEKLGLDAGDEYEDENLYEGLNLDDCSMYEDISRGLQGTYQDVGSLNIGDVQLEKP

As for HSVCLAYRGRPVCFPT (cyclized; carboxy terminal PEG linker and a biotin tag) [IgA binding peptide … (SEQ ID NO 36)], the EC50 was 900 nM. Consider KMVCLAYRGRPVCFPT (cyclized; carboxy terminal PEG linker and a biotin tag) [IgA binding peptide … (SEQ ID NO 35)], for which the EC50 is 900 nM.
